Article PMC9741652, “CRL2^ZER1/ZYG11B recognizes small N-terminal residues for degradation” (Nature Communications, 2022)

Columns and labels:
[1] = molecular target: T1, GST-fused ZYG11B (residues 490–744) (UniProt Q9C0D3 490-744); test: peptide or protein array; peptide SPOT array on cellulose membrane; purified GST-tagged ZER1 (50 nM) or ZYG11B (230 nM) in 10% glycerol, 0.1 M KCl, 1 mM EDTA, 20 mM HEPES pH 7.5, 1 h at room temperature; detected with anti-GST by chemiluminescence; settings: both partners purified
T1 construct: ZYG11B, residues 490-744; Vector pACYC-GST is Addgene Plasmid #62329; also called GST-tagged ZYG11B_(490–744); source: purified; cloned into pACYC-GST
T1 sequence (Q9C0D3 490-744): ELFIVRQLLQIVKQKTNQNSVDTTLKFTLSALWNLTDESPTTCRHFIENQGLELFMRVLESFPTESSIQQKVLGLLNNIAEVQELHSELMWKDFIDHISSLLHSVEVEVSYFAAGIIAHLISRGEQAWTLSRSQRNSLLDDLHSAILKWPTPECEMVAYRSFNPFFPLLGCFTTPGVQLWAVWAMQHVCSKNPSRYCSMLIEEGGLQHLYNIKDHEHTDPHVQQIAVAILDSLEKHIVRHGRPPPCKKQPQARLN

[2] = molecular target: T2, GST-fused ZER1 (residues 469–766) (human, UniProt Q7Z7L7 469-766); test: as above; settings: both partners purified
T2 construct: ZER1, human, residues 469-766; Vector pACYC-GST is Addgene Plasmid #62329; also called GST-tagged ZER1_(469–766); source: purified; cloned into pACYC-GST
T2 sequence (Q7Z7L7 469-766): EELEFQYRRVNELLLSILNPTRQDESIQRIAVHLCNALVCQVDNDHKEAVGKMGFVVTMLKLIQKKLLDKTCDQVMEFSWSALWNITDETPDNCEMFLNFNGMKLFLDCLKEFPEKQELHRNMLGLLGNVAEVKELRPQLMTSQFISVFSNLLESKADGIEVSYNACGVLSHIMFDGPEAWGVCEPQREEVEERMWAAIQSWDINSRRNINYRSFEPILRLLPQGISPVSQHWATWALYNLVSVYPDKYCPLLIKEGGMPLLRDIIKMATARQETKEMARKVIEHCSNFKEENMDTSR

Row | Binder | binding result [1] | binding result [2]
1 | AFLHVGQDGLELPTS (numbers count on: the peptide; Spot on a cellulose membrane; also called Nt-Ala (SPOT array); source: synthetic peptide, synthesized on cellulose membrane (SPOT array)) [AFLHVGQDGLELPTS peptide (15-mer, position 1 Ala)] | binds | binds
2 | GFLHVGQDGLELPTS (15-mer derived from the N-terminus of ZNF701; Spot on a cellulose membrane; also called Nt-Gly (SPOT array); source: synthetic peptide, synthesized on cellulose membrane (SPOT array)) [GFLHVGQDGLELPTS peptide (15-mer from the N-terminus of ZNF701)] | binds | –

Other lines, results leading:

Row | binding result [1] | binding result [2] | Binder
3 | – | binds | TFLHVGQDGLELPTS (numbers count on: the peptide; Spot on a cellulose membrane; also called Nt-Thr (SPOT array); source: synthetic peptide, synthesized on cellulose membrane (SPOT array)) [TFLHVGQDGLELPTS peptide (15-mer, position 1 Thr)]
4 | binds | binds | SFLHVGQDGLELPTS (numbers count on: the peptide; Spot on a cellulose membrane; also called Nt-Ser (SPOT array); source: synthetic peptide, synthesized on cellulose membrane (SPOT array)) [SFLHVGQDGLELPTS peptide (15-mer, position 1 Ser)]
